Values belong to the binder of their own block, whether it stands above or below them.
Assays:
[1] = target: T1, 1AAtMOD (β-sheets): A. thaliana SSU 1A with β-sheets replaced with C. reinhardtii β-sheets (Arabidopsis thaliana with parts of …); assay: yeast two-hybrid (FIG. 3C)
T1 construct: also called pGADT7_1AAtMOD(β-sheets)
T1 chain: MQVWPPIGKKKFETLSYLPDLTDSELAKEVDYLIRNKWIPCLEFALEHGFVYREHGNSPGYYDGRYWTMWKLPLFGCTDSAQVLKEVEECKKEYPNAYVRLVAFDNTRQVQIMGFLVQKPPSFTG
Experimental: (§1) The following day 1 ml of culture was harvested, cell density (OD₆₀₀) measured, centrifuged and then diluted in TE to give a final OD₆₀₀ of 0.5 or 0.1.
(§2) Yeast cultures were then plated onto SD-L-W (yeast synthetic minimal media lacking leucine (L) and tryptophan (W)) and SD-L-W-H (yeast synthetic minimal media lacking L, W, and histidine(H)) (Anachem). Yeast expressing both binding and activation domain constructs was grown on SD-L-W to confirm presence of both plasmids. To assess interaction strength, yeast was plated onto SD-L-W-H with differing concentrations of the HIS3 inhibitor 3-aminotriazole (3-AT). These plates were then incubated for 3 days before assessing for presence or absence of growth, to perform a semi-quantitative yeast two-hybrid assay as in van Nues and Beggs (van Nues and Beggs, Genetics (2000) 157: 1451-1467). The same yeast transformation was used for each interaction study. Different colonies on the same yeast transformation plate were considered independent biological replicates (as for E. coli). Two biological replicates (top and bottom row for each interaction) were spotted from different liquid culture concentrations (0.5 and 0.1 OD). Each interaction experiment was performed at least twice.
(§3) Interactions were only observed between EPYC1 and chimeric 1AAt with the two α-helices from the C. reinhardtii SSU (FIG. 3C). The S1Cr 1AAt with the S1Cr α-helices alone produced a minimal interaction (i.e., on 0 mM 3-AT), which was strengthened by the incorporation of the β-sheets and the βA-βB loop from S1Cr.

[2] = target: T2, 1AAtMOD (loop): A. thaliana SSU 1A with βA-βB loop replaced with C. reinhardtii βA-βB loop (Arabidopsis thaliana with parts of …); assay: yeast two-hybrid (FIG. 3C)
T2 construct: also called pGADT7_1AAtMOD(loop)
T2 chain: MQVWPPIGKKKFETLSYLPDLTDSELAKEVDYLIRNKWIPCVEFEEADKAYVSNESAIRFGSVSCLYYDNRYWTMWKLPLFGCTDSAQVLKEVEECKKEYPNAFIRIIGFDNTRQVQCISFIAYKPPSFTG
Experimental: as §1, §2, §3

[3] = target: T3, 1AAtMOD (β-sheets and loop): A. thaliana SSU 1A with β-sheets and βA-βB loop replaced with those of C. … (Arabidopsis thaliana with parts of …); assay: yeast two-hybrid (FIG. 3C)
T3 construct: also called 1AAtMod (β-sheet and loop); pGADT7_1AAtMOD(β-sheets + loop)
T3 chain: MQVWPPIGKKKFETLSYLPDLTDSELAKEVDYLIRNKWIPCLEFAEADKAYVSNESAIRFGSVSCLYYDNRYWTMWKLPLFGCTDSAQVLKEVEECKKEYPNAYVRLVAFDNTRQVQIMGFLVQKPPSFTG
Experimental: as §1, §2, §3

[4] = target: T4, 1AAtMOD (α-helices and β-sheets): A. thaliana SSU 1A with α-helices and β-sheets replaced with those of C. … (Arabidopsis thaliana with parts of …); assay: yeast two-hybrid (FIG. 3C)
T4 construct: also called pGADT7_1AAtMOD(α-helices + β-sheets)
T4 chain: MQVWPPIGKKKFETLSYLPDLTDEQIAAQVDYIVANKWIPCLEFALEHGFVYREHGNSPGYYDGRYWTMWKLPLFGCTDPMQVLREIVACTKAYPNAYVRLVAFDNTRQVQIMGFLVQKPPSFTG
Experimental: as §1, §2, §3

[5] = target: T5, 1AAtMOD (α-helices, β-sheets and loop): A. thaliana SSU 1A with α-helices, β-sheets and βA-βB loop replaced … (Arabidopsis thaliana with parts of …); assay: yeast two-hybrid (FIG. 3C)
T5 construct: also called 1AAtMod (α-helices, β-sheet and loop); pGADT7_1AAtMOD(α-helices + β-sheets + loop)
T5 chain: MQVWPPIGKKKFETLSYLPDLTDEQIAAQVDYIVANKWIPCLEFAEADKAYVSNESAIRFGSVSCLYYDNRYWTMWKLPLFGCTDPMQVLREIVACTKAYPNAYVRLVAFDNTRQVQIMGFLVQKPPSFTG
Experimental: as §1, §2, §3

[6] = target: A. thaliana Rubisco small subunit 1A (1AAt), mature (Arabidopsis thaliana, UniProt P10795 56-180); assay: yeast two-hybrid, growth on SD-L-W-H with 3-AT
Experimental: (§4) Competent yeast cells (Y2H Gold, Clontech) were prepared from a 50 ml culture grown in YPDA medium supplemented with kanamycin (50 μg ml⁻¹). Cells were washed with ddH2O and a lithium acetate/TE solution (100 mM LiAc, 10 mM Tris-HCl [pH 7.5], 1 mM EDTA) before re-suspending in lithium acetate/TE solution. Cells were then co-transformed with binding and activation domain vectors by mixing 50 μl of competent cells with 1 μg of each plasmid vector and a PEG solution (100 mM LiAc, 10 mM Tris-HCl [pH 7.5], 1 mM EDTA, 40% [v/v] PEG 4000). Cells were incubated at 30° C. for 30 min, then subjected to a heat shock of 42° C. for 20 min. The cells were centrifuged, re-suspended in 500 μl YPDA and incubated at 30° C. for ca 90 min, then centrifuged and washed in TE (10 mM Tris-HCl [pH 7.5], 1 mM EDTA). […] The following day 1 ml of culture was harvested, cell density (OD₆₀₀) measured, centrifuged and then diluted in TE to give a final OD₆₀₀ of 0.5 or 0.1.
(§5) Yeast cultures were then plated onto SD-L-W (yeast synthetic minimal media lacking leucine (L) and tryptophan (W)) and SD-L-W-H (yeast synthetic minimal media lacking L, W, and histidine(H)) (Anachem). […] These plates were then incubated for 3 days before assessing for presence or absence of growth, to perform a semi-quantitative yeast two-hybrid assay as in van Nues and Beggs (van Nues and Beggs, Genetics (2000) 157: 1451-1467). […]

[7] = target: T6, A. thaliana CP12-2 (AtCP12) (Arabidopsis thaliana, UniProt Q9LZP9 54-131, limits assumed); assay: yeast two-hybrid
T6 construct: also called AT3G62410; pGADT7_CP12
T6 sequence (looked up): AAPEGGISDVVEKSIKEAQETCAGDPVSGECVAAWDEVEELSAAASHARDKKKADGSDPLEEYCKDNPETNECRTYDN
Experimental: as §4, §5

[8] = target: the molecule itself; assay: yeast two-hybrid, EPYC1 in both the binding domain and the activation domain vector
Experimental: as §4, §5

[9] = target: 1AAt::YFP^N (A. thaliana SSU 1A fused at the C-terminus to YFP^N) (Arabidopsis thaliana, UniProt P10795 56-180); assay: BiFC in N. benthamiana; a YFP signal was seen and is put down to self-assembly of the split YFP halves
Experimental: (§6) Bimolecular fluorescence complementation analysis (BiFC) was carried out to provide additional information about the EPYC1-Rubisco interaction in vivo. Three Rubisco SSUs (1AAt, S2Cr and 1AAtMOD) and EPYC1, each fused at the C-terminus to either YFP^N or YFP^C were transiently co-expressed in N. benthamiana (Walter, et al., Plant J. (2004) 40: 428-438).

[10] = target: T7, 1AAt::YFP^C (A. thaliana SSU 1A fused at the C-terminus to YFP^C) (Arabidopsis thaliana, UniProt P10795 56-180); assay: as above
Experimental: as §6

[11] = target: T7, 1AAt::YFP^C (A. thaliana SSU 1A fused …); assay: BiFC in N. benthamiana
Experimental: as §6

B1: Essential Pyrenoid Component 1 (EPYC1), full-length, C. reinhardtii (other)
chain: MATISSMRVGAASRVVVSGRVKTVKVAARGSWRESSTATVQASRASSATNRVSPTRSVLPANWRQELESLRNGNGSSSAASSAPAPARSSSASWRDAAPASSAPARSSSASKKAVTPSRSALPSNWKQELESLRSSSPAPASSAPAPARSSSASWRDAAPASSAPARSSSSKKAVTPSRSALPSNWKQELESLRSSSPAPASSAPAPARSSSASWRDAAPASSAPARSSSASKKAVTPSRSALPSNWKQELESLRSNSPAPASSAPAPARSSSASWRDAPASSSSSSADKAGTNPWTGKSKPEIKRTALPADWRKGL
notes: also called Cre10.g436550.t1.2; pGBKT7_EPYC1
binding result [1]: no binding
binding result [2]: no binding
binding result [3]: no binding
binding result [4]: binds
binding result [5]: binds
binding result [6]: no binding
binding result [7]: no binding
binding result [8]: no binding

B2: EPYC1::YFP^C (EPYC1 fused at the C-terminus to YFP^C, with 1AAt transit peptide) (other)
chain: MATISSMRVGAASRVVVSGRVKTVKVAARGSWRESSTATVQASRASSATNRVSPTRSVLPANWRQELESLRNGNGSSSAASSAPAPARSSSASWRDAAPASSAPARSSSASKKAVTPSRSALPSNWKQELESLRSSSPAPASSAPAPARSSSASWRDAAPASSAPARSSSSKKAVTPSRSALPSNWKQELESLRSSSPAPASSAPAPARSSSASWRDAAPASSAPARSSSASKKAVTPSRSALPSNWKQELESLRSNSPAPASSAPAPARSSSASWRDAPASSSSSSADKAGTNPWTGKSKPEIKRTALPADWRKGL
notes: Expressed transiently in N. benthamiana with the 1AAt transit peptide at the N-terminus; processing in the plant not determined; also called pB7_1AAtTP::EPYC1::YFP^C; not shown: YFP^C half of split YFP (primer name YFPc155)
binding result [9]: no binding

More lines, now with the values ahead:

binding result [10]: no binding
B3: EPYC1::YFP^N (EPYC1 fused at the C-terminus to YFP^N, with 1AAt transit peptide) (other)
chain: MATISSMRVGAASRVVVSGRVKTVKVAARGSWRESSTATVQASRASSATNRVSPTRSVLPANWRQELESLRNGNGSSSAASSAPAPARSSSASWRDAAPASSAPARSSSASKKAVTPSRSALPSNWKQELESLRSSSPAPASSAPAPARSSSASWRDAAPASSAPARSSSSKKAVTPSRSALPSNWKQELESLRSSSPAPASSAPAPARSSSASWRDAAPASSAPARSSSASKKAVTPSRSALPSNWKQELESLRSNSPAPASSAPAPARSSSASWRDAPASSSSSSADKAGTNPWTGKSKPEIKRTALPADWRKGL
notes: Expressed transiently in N. benthamiana with the 1AAt transit peptide at the N-terminus; processing in the plant not determined; also called pB7_1AAtTP::EPYC1::YFP^N; not shown: YFP^N half of split YFP (primer name YFPn173)

binding result [11]: no binding
B4: AtCP12::YFP^N (A. thaliana CP12 fused at the C-terminus to YFP^N) (other)
chain: AAPEGGISDVVEKSIKEAQETCAGDPVSGECVAAWDEVEELSAAASHARDKKKADGSDPLEEYCKDNPETNECRTYDN
notes: Negative control of the BiFC assay; also called pICH47732_CP12At::YFP^N; not shown: YFP^N half of split YFP

Reference: patent US20220282268A1 (UNIVERSITY COURT OF THE UNIVERSITY OF EDINBURGH, published 2022)
